Experimental data reported in the supplement of paper PMC12764529.
± gives the half width of the 95% confidence interval.

What was measured:
[1] = folding stability dG unfold from trypsin proteolysis; higher = more stable
Summary of the method: (§1)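 Designed mini-proteins with no cysteine and under 80 residues were kept only if AlphaFold2 dimer inter-PAE was above 15. In a PA-tagged cDNA display construct, they were digested with trypsin and chymotrypsin and then sequenced. K50 was inferred by Bayesian fitting of counts, and unfolding free energy was derived per protease or combined against a sequence-predicted unfolded-state K50 and a shared folded-state K50.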

[2] = folding stability dG unfold from chymotrypsin proteolysis; higher = more stable
Summary of the method: as §1

[3] = folding stability dG unfold (combined trypsin and chymotrypsin); higher = more stable
Summary of the method: as §1

Sequence	folding stability dG unfold [1]	folding stability dG unfold [2]	folding stability dG unfold [3]
SAGGSFEVEVEVERYPEENYYYVKIPIRLPNNGKKIPLDVPVPADDPEPAEKWAKFIAKELAKQGISAGGSA [r2_221_TrROS]	-0.362 ± 0.586 kJ/mol	-0.42 ± 1.13 kJ/mol	-0.42 ± 0.962 kJ/mol
SAGGSFHDLAKELAKKRGLKKVSINMHPEDNSMNINIQNPEKGRPVQGNIPMEDMTPETVLDQIENILESAG [r5_896_TrROS]	-4.34 ± 2.89 kJ/mol	1.24 ± 1.17 kJ/mol	-0.3 ± 1 kJ/mol
SAGGSFVVIEPTADGVRIVLEDDGALREVPVSPEVAAALAANPDLEGVVRSLLPEGHPIERIAAVPGSAGGS [r16_567_TrMRF]	-3.16 ± 1 kJ/mol	-1.99 ± 0.711 kJ/mol	-1.89 ± 0.837 kJ/mol
SAGGSGEVRPLELEFTLPNGAKIKITLHVYPDGTVKVEARIEFGGEYLELRFEFEGEKVPLDFPDFGSAGGS [r16_523_TrMRF]	15 ± 0.544 kJ/mol	15.6 ± 0.46 kJ/mol	15.6 ± 0.837 kJ/mol
SAGGSGIEAAILEAVEKGLNPVELTFRLPEDGKLVVLKVEVLDVLDGGAIVKVEMEVYDPENPKKISAGGSA [r2_420_TrMRF]	4.42 ± 0.372 kJ/mol	8.97 ± 0.264 kJ/mol	7.67 ± 0.418 kJ/mol
SAGGSGMIKTETTVTITFPGGETVSFPATVTYDPETGKTEVEVNLPEAALAELKERAPDAEVNVLLSAGGSA [r2_409_JUSTAS]	7.37 ± 0.134 kJ/mol	2.85 ± 0.0586 kJ/mol	5.4 ± 0.192 kJ/mol
SAGGSGMIYVIKIKLEPTIKPGKKKEFEFELVLEATPEEIEEVLEKIKKLPKNIKIKEIKIEVFPESAGGSA [r2_75_TrMRF]	8.71 ± 0.502 kJ/mol	13.3 ± 0.305 kJ/mol	10.9 ± 1.34 kJ/mol
SAGGSGMMLEEGVGVDPTTGELHRFTYLREPERPPVEVTVTTTTVVYTTPDGTTVTVTTTTTLEGGSAGGSA [r2_326_JUSTAS]	2.81 ± 0.197 kJ/mol	3.29 ± 1.13 kJ/mol	3.3 ± 0.544 kJ/mol
SAGGSGMTTTFSKEVSSKEEAEKIFKRGFPDLNAKVTKFDPKKGTVEIELTFPDGKKSKATAPIKKSAGGSA [r2_201_JUSTAS]	-2.38 ± 2.43 kJ/mol	0.417 ± 2.09 kJ/mol	-0.94 ± 1.55 kJ/mol
SAGGSGSTTPETRTEPSPGGTTTEVRTDVHTLPDAETVEITVTRGGRTITLTASPAEAATLRVTPGASAGGS [r8_257_JUSTAS]	-2.32 ± 2.55 kJ/mol	-2.57 ± 2.59 kJ/mol	-1.82 ± 2.13 kJ/mol
SAGGSIELPLEEGSTAEVELELRVPFYRLDANGRPVAPEERTLRIRARFTRLPDGRVLVEVEVEVESAGGSA [r2_154_TrMRF]	18.7 ± 0.711 kJ/mol	21.9 ± 0.418 kJ/mol	20.8 ± 0.544 kJ/mol
SAGGSIPADTVATLTLPDRDLAVRVELVDGTPRYLVTGPDGTPVGTLTPEEFAAFVAALPADARLDLRSAGG [r13_657_JUSTAS]	2.93 ± 0.134 kJ/mol	5.53 ± 0.339 kJ/mol	4.82 ± 0.285 kJ/mol
SAGGSIPLSDIKDIEIHPWRHPNNNYPMYRIRIDNGRDMVIFPGAIFEFDPDDGKIEEVKPMPFGDSAGGSA [r2_374_TrROS]	0.692 ± 0.92 kJ/mol	0.929 ± 0.92 kJ/mol	0.996 ± 0.586 kJ/mol
SAGGSIPPGARVETLEVVTSSSSDGTVTTTTLTRVTSPEDSVSERTRTTTDPVVPPPATPTNPVSLASAGGS [r8_90_JUSTAS]	-0.0684 ± 0.331 kJ/mol	3.36 ± 0.251 kJ/mol	2.12 ± 0.222 kJ/mol
SAGGSISIPVYSPEDVIEAIEFIERYLREKGFPENEEATRIIVERLEDGRYRVIIEYPTRTIIIDDSAGGSA [r2_120_TrMRF]	12.1 ± 0.205 kJ/mol	12.9 ± 0.138 kJ/mol	12.6 ± 0.28 kJ/mol
SAGGSITKTLGTEEKGDKTITYSVTTSPEGKITFTTTTKTPSGSGTSTTTTTTTTPLAGLPLPPLGGSAGGS [r8_458_JUSTAS]	1.98 ± 0.176 kJ/mol	3.48 ± 0.753 kJ/mol	3 ± 0.795 kJ/mol
SAGGSKDLEIKITKIKEWDPPNGKQTIRIPIEVYDPENGKPRPPAEELADELQKRFPGMPIKVEPVSAGGSA [r2_27_TrROS]	-1.74 ± 1.21 kJ/mol	3.61 ± 0.117 kJ/mol	1.85 ± 0.586 kJ/mol
SAGGSKEKFLTIEHPDYVIKAYVDYPKEGKLRVRIEIYDKNGKLLKTIEVEAYSPEEVLEFLEKAASAGGSA [r2_82_TrMRF]	10.4 ± 0.418 kJ/mol	13.7 ± 0.544 kJ/mol	12.7 ± 0.586 kJ/mol

Sequence	folding stability dG unfold [1]	folding stability dG unfold [2]	folding stability dG unfold [3]
SAGGSKELKPGDIITFPKSVSEEEIKEKVKELMEKYGIKGIISIEKKSPNSYIVKIEYPDGNPLAISAGGSA [r2_168_JUSTAS]	8.79 ± 0.31 kJ/mol	5.62 ± 0.339 kJ/mol	7.19 ± 0.628 kJ/mol
SAGGSKERTYRVLIRNPDGELEEIEVSEEELEALLSLPPSATVRIVTEDGEEKTVTINVEKVELKESAGGSA [r2_222_TrROS_Hall]	7.29 ± 0.46 kJ/mol	14.6 ± 0.28 kJ/mol	12.9 ± 0.711 kJ/mol
SAGGSKFEVEKLPDNTYRFKVPNENGETLEITVEKLPDGAILVTHPSNPKPVLFPASTTIEDLLKKSAGGSA [r2_338_TrMRF]	5.42 ± 0.121 kJ/mol	9.29 ± 0.121 kJ/mol	8.18 ± 0.134 kJ/mol
SAGGSKGKAPVKVRFLFLEDGKVVAEAEVEFEVEVPIPPVPPVFVPEEARKALENGDIEKALKLLGSAGGSA [r2_196_TrMRF]	3.46 ± 0.151 kJ/mol	6.6 ± 0.146 kJ/mol	5.68 ± 0.544 kJ/mol
SAGGSKKKIEKIEIEIEIKNKDGKTYKIKAEIEKVELKDGKVAKIRLEIYNENGEKIAEFEFEIKISAGGSA [r2_215_TrROS_Hall]	8.69 ± 0.628 kJ/mol	16.8 ± 0.795 kJ/mol	15.1 ± 0.962 kJ/mol
SAGGSKKKKPEKPPVVLIKITVEETGKEITIPLEELRNMSAEELAKRIAEELRERYPGLKVRVEIVSAGGSA [r2_392_TrROS_Hall]	6.25 ± 0.297 kJ/mol	9.56 ± 0.46 kJ/mol	8.66 ± 0.711 kJ/mol
SAGGSKKTIVIPVPPGMSVEQIAAELKAKLEELFPDLKVEVVEVKPDGYVKIKIDGKLILIKFPKPSAGGSA [r2_102_TrROS_Hall]	6.7 ± 0.205 kJ/mol	13.3 ± 0.176 kJ/mol	11.6 ± 0.264 kJ/mol
SAGGSKKVDIKPGKVKKVEVKTLPNGKKLLVLYFPLEDGKEKVVVISSDFKTPEEALEAAYKQLGKSAGGSA [r2_347_TrMRF]	4.26 ± 0.205 kJ/mol	5.05 ± 0.276 kJ/mol	5.15 ± 0.879 kJ/mol
SAGGSKKVKIKITKIEIFPNGTIKVTVKNEDGSEVTITITKNKDGKYKIKIKNKKTKKIFEFEIPLSAGGSA [r2_361_TrROS_Hall]	9.29 ± 0.372 kJ/mol	12.9 ± 0.251 kJ/mol	11.7 ± 0.92 kJ/mol
SAGGSKLPKNSKVLIIDLGAPKGIKPNDKVKIPKELIKKIKEKNPNVKFYKEYNIGNKTYIFIVIDSAGGSA [r2_383_TrMRF]	5.49 ± 0.28 kJ/mol	10 ± 0.247 kJ/mol	8.21 ± 0.502 kJ/mol
SAGGSKPKTVEITLEVDGKKVKITVTEKDGKLTVTITFPDGTKLTIELPENMSIEEALKKALEALKSAGGSA [r2_92_TrROS_Hall]	13.7 ± 0.544 kJ/mol	10 ± 0.259 kJ/mol	12 ± 0.402 kJ/mol
SAGGSKTIEVEIKVPPGMTPEEVAKKLAEELKKAGIEVKVVKVEYDEEKGTVRITLDDGSEVELKVSAGGSA [r2_242_TrROS_Hall]	5.67 ± 0.389 kJ/mol	8.28 ± 0.418 kJ/mol	6.61 ± 1.63 kJ/mol
SAGGSKTVELEIEIDGKLIKIRVEENENGELTVRIEIYDKNGKKVKEIEIKVKSLEEALKALEKLLSAGGSA [r2_82_TrROS_Hall]	13.4 ± 0.502 kJ/mol	13.5 ± 0.502 kJ/mol	13.5 ± 0.502 kJ/mol
SAGGSKVEIWIRFGDYWIRITVEPKPNGRKKVSVEVYNPNGEPMWSITFEIDPDGKIKDIDITPMPSAGGSA [r2_260_TrROS]	19 ± 0.962 kJ/mol	21 ± 0.586 kJ/mol	21 ± 0.544 kJ/mol
SAGGSKWIPVSIWFPKGMTPEKVEEIARELVEAGYRIENIEVEREPDPNGREWYRVDITFRPPGDLSAGGSA [r2_442_TrROS]	11.3 ± 0.356 kJ/mol	12.6 ± 0.372 kJ/mol	11.8 ± 0.753 kJ/mol
SAGGSKWRMYEITLELGDKPVKITVYYMDGNYSVAIKFPPGRKVDIPFDGPMSPEDAAKKALEALGSAGGSA [r2_92_TrROS]	9.77 ± 0.234 kJ/mol	14.97 ± 0.109 kJ/mol	13.6 ± 0.397 kJ/mol
SAGGSKYPIEVTDPENGNPVLLEDVESLASVTQEEPGDGRSLYTATVPETGEPVFLTSPEKLAAALSSAGGS [r8_206_JUSTAS]	2.48 ± 0.146 kJ/mol	0.315 ± 0.795 kJ/mol	1.61 ± 0.46 kJ/mol
SAGGSLIEKIAKEAGIKVEISKEETNGSPVLTITITKGDKNIVFKDDGKDPEKLVKELAKKIGIKPISAGGS [r8_226_JUSTAS]	2.09 ± 0.18 kJ/mol	1.73 ± 0.36 kJ/mol	1.77 ± 0.795 kJ/mol
